{
  "source": "paper doi:10.1101/2021.06.14.21258871",
  "target": "recombinant stabilized complete spike protein (SARS-CoV-2), pre-fusion stabilised (SARS-CoV-2) (UniProt P0DTC2)",
  "assay": "affinity purification with mass spectrometry",
  "data": [
    {"substance": "human serum albumin (from UniProt P02768 25-609) (natural protein)", "values": [
      {"measurement": "mean MALDI-ToF peak intensity of eluted HSA", "value": 1920, "unit": "AU"},
      {"measurement": "percent of samples in which HSA was detected in the eluate", "value": 72, "unit": "%"}
    ]}
  ]
}
